The subject of this data set is plasminogen according to the present invention (20 mg/ml, Example 8).

For the substance Elastase, the “plasmin activity after activation” value was 0.63 U/mg.

With Endoproteinase Asp-N, the “plasmin activity after activation” value is given as 4.3 U/mg.

Endoproteinase Glu-C: the “plasmin activity after activation” value was 0.6 U/mg.

Turning to Ficin, the “plasmin activity after activation” value was 0.01 U/mg.

With Protease VIII, the “plasmin activity after activation” value is on record as 9 U/mg.

Turning to Protease XIII, the “plasmin activity after activation” value was found to be 0.01 U/mg.

In the case of Protease XVIII, the “plasmin activity after activation” value is 0.7 U/mg.

As to Protease from S. griseus, the “plasmin activity after activation” value was 613.3 U/mg.

Turning to Proteinase A, the “plasmin activity after activation” value worked out at 0.02 U/mg.

Consider Thrombin, for which the “plasmin activity after activation” value is listed as 83.0 U/mg.

Regarding Trypsin, the “plasmin activity after activation” value is 11 kU/mg.

Values taken from patent publication US20050124036.
